In series [1] the target is T1, CST (CTC1-STN1-TEN1) (human, UniProt Q2NKJ3;Q9H668;Q86WV5 1-1217;1-368;1-123). Description: fluorescence anisotropy; 200 mM KCl; FA: 200 mM NaCl, KCl or LiCl, 20 mM HEPES pH 7.4, 1 mM DTT, 22-25 C, 375 or 750 pM oligo, Kd,app +/- SEM; EMSA: 20 mM HEPES pH 7.4, 200 mM KCl, 1 nM 32P oligo. The following applies: protein: recombinant, tags: 2xFLAG N-term on CTC1, 6xHis N-term on STN1 and TEN1, copies: 1;1;1, label: 5' fluorescein, linear in LiCl.

Series [2] concerns the target T1, CST (CTC1-STN1-TEN1). The experiment in a line: fluorescence anisotropy; 200 mM LiCl; FA: 200 mM NaCl, KCl or LiCl, 20 mM HEPES pH 7.4, 1 mM DTT, 22-25 C, 375 or 750 pM oligo, Kd,app +/- SEM; EMSA: 20 mM HEPES pH 7.4, 200 mM KCl, 1 nM 32P oligo. The following applies: protein: recombinant, tags: 2xFLAG N-term on CTC1, 6xHis N-term on STN1 and TEN1, copies: 1;1;1, label: 5' fluorescein, linear in LiCl.

Series [3] has as its target T1, CST (CTC1-STN1-TEN1). Description: fluorescence anisotropy; 200 mM NaCl; FA: 200 mM NaCl, KCl or LiCl, 20 mM HEPES pH 7.4, 1 mM DTT, 22-25 C, 375 or 750 pM oligo, Kd,app +/- SEM; EMSA: 20 mM HEPES pH 7.4, 200 mM KCl, 1 nM 32P oligo. The conditions noted are these: protein: recombinant, tags: 2xFLAG N-term on CTC1, 6xHis N-term on STN1 and TEN1, copies: 1;1;1, label: 5' fluorescein.

Series [4] has as its target T2, RPA WT (RPA70-RPA32-RPA14) (human, UniProt P27694;P15927;P35244 1-616;1-270;1-121). Description: fluorescence anisotropy; 200 mM KCl; FA: 200 mM NaCl, KCl or LiCl, 20 mM HEPES pH 7.4, 1 mM DTT, 22-25 C, 375 or 750 pM oligo, Kd,app +/- SEM; EMSA: 20 mM HEPES pH 7.4, 200 mM KCl, 1 nM 32P oligo. The following applies: protein: recombinant, tags: 6xHis N-term on RPA70 and RPA14, copies: 1;1;1, label: 5' fluorescein, linear in LiCl.

For series [5], the target named is T2, RPA WT (RPA70-RPA32-RPA14). Description: fluorescence anisotropy; 200 mM LiCl; FA: 200 mM NaCl, KCl or LiCl, 20 mM HEPES pH 7.4, 1 mM DTT, 22-25 C, 375 or 750 pM oligo, Kd,app +/- SEM; EMSA: 20 mM HEPES pH 7.4, 200 mM KCl, 1 nM 32P oligo. The conditions noted are these: protein: recombinant, tags: 6xHis N-term on RPA70 and RPA14, copies: 1;1;1, label: 5' fluorescein, linear in LiCl.

In series [6] the target is T2, RPA WT (RPA70-RPA32-RPA14). Description: fluorescence anisotropy; 200 mM NaCl; FA: 200 mM NaCl, KCl or LiCl, 20 mM HEPES pH 7.4, 1 mM DTT, 22-25 C, 375 or 750 pM oligo, Kd,app +/- SEM; EMSA: 20 mM HEPES pH 7.4, 200 mM KCl, 1 nM 32P oligo. The following applies: protein: recombinant, tags: 6xHis N-term on RPA70 and RPA14, copies: 1;1;1, label: 5' fluorescein, linear in LiCl.

Setting [7] is: parallel G4 in KCl (predominantly unimolecular).
The mark [8] stands for this setting: intramolecular G4 at 3' end, 5' tail.
[9] abbreviates: intramolecular G4 at 5' end, 18 nt 3' tail.

T1 sequence (Q2NKJ3 whole entry, chain 1 of 3): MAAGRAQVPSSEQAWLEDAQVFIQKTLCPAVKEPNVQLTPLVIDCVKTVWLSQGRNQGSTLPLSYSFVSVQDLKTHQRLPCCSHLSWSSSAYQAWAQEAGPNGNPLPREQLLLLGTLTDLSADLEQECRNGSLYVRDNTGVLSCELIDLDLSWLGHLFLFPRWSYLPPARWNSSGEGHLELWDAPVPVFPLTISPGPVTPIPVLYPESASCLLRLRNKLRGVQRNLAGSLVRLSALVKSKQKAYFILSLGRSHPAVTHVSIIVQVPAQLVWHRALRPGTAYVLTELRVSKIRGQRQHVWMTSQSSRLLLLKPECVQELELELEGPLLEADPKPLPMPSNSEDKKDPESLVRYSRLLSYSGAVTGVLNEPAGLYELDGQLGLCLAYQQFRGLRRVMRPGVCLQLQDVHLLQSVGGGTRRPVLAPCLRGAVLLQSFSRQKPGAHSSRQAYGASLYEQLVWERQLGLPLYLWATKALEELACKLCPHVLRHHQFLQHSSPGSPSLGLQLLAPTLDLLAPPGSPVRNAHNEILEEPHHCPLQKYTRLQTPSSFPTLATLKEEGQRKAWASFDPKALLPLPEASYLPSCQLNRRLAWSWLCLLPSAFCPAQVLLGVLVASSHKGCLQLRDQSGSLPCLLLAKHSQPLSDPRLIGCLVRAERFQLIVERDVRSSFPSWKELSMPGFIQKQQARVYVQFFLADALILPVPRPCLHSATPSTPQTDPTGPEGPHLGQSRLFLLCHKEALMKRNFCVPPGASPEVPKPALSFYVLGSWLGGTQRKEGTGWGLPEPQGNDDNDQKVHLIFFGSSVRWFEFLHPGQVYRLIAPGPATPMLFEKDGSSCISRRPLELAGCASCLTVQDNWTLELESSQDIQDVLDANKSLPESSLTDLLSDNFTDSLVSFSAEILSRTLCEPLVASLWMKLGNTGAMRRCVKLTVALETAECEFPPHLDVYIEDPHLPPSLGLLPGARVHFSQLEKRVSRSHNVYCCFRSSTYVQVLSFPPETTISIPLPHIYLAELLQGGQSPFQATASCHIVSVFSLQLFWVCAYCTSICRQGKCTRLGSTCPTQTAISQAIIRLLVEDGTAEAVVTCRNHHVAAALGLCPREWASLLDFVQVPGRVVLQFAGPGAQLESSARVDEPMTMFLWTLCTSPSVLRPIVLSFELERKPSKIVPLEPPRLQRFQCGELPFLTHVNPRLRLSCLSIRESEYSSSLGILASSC
T1 sequence (Q9H668 whole entry, chain 2 of 3): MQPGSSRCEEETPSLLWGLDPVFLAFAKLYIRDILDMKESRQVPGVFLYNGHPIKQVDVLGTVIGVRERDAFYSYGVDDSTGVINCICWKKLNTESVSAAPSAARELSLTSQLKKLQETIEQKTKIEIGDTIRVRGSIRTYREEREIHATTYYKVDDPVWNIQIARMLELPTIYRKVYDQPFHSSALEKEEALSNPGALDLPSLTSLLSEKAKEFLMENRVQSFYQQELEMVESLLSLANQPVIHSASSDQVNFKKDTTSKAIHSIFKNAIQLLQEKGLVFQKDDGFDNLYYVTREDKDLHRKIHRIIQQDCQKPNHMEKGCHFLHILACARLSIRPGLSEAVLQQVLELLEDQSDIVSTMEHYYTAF
T1 sequence (Q86WV5 whole entry, chain 3 of 3): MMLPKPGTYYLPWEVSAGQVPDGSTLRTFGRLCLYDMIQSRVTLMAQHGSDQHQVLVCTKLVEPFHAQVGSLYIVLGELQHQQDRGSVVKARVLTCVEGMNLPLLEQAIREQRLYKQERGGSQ
T2 sequence (P27694 whole entry, chain 1 of 3): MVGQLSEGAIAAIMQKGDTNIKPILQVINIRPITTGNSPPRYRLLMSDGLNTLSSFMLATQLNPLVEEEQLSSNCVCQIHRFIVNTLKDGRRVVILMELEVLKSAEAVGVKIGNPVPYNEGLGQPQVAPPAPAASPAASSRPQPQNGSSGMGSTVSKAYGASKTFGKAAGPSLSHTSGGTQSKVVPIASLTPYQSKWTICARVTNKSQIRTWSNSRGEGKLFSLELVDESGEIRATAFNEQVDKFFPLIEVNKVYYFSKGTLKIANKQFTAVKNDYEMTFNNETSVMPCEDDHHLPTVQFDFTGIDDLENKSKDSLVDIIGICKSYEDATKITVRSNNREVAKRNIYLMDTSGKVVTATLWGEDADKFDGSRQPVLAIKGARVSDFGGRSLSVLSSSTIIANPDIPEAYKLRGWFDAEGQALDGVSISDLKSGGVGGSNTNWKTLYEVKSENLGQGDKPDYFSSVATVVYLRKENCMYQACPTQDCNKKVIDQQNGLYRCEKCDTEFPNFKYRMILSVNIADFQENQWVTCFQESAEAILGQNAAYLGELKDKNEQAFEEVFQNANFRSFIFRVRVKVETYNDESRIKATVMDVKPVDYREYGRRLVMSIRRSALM
T2 sequence (P15927 whole entry, chain 2 of 3): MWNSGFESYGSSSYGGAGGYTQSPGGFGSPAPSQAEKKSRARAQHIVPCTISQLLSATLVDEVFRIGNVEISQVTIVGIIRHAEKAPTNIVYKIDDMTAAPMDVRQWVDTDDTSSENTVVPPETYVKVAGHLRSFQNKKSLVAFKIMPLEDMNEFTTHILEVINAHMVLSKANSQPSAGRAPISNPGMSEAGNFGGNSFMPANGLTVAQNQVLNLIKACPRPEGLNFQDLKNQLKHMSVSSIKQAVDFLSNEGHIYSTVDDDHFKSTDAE
T2 sequence (P35244 whole entry, chain 3 of 3): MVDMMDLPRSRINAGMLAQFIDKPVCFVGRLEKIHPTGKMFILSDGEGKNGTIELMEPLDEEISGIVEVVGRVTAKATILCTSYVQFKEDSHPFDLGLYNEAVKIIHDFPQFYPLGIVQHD

As for TAGGGAGGGTAGGGAGGGT (structured_DNA) [2LBY], the Kd in the series with CST (CTC1-STN1-TEN1) [1] (parallel G4 in KCl) was 26.5 ± 1.5 nM; with CST (CTC1-STN1-TEN1) [2] (parallel G4 in KCl), 11.5 ± 1.3 nM.

For CGGGGCGGGCCTTGGGCGGGGT (structured_DNA) [2M27], the results for the Kd with CST (CTC1-STN1-TEN1) [1] (setting [7]) and with CST (CTC1-STN1-TEN1) [2] (setting [7]) were 13.3 ± 0.9 nM and 10.8 ± 0.2 nM, respectively.

Turning to CCCTAACCCTAACCCTAACCCT (ssDNA) [C22], in the series with CST (CTC1-STN1-TEN1) [3] (linear), the Kd was 184 ± 28 nM.

Turning to TTGGGTTAGGGTTAGGGTTAGGGA (structured_DNA) [2GKU], the Kd with CST (CTC1-STN1-TEN1) [2] (hybrid 1 G4 in KCl) came out at 11.9 ± 1.2 nM.

As to AGTGTGAGTGTGAGTGTTAGGGTTAGGGTTAGGGTTAGGG (structured_DNA) [Tel40 3' G4], the Kd turned out to be 3.4 ± 0.5 nM with CST (CTC1-STN1-TEN1) [1] (setting [8]); 0.52 ± 0.11 nM in series [4] (setting [8]); 1.09 ± 0.1 nM in the series with CST (CTC1-STN1-TEN1) [2] (setting [8]); 0.68 ± 0.16 nM in series [5] (setting [8]); 2.3 ± 0.4 nM with CST (CTC1-STN1-TEN1) [3] (intramolecular G4 at 3' end, 5' tail, linear in LiCl); 0.4 ± 0.08 nM in series [6] (setting [8]).

Turning to TAGGGTTAGGGTTAGGGTTAGGGTT (structured_DNA) [2JSL], the Kd with CST (CTC1-STN1-TEN1) [2] (hybrid 2 G4 in KCl) turned out to be 8.3 ± 0.6 nM.

As for AGGGCTAGGGCTAGGGCTAGGG (structured_DNA) [2KM3], the Kd in the series with CST (CTC1-STN1-TEN1) [2] (antiparallel G4 in KCl) turned out to be 4.5 ± 0.3 nM.

Regarding GGGTAGGGAGCGGGAGAGGG (structured_DNA) [6GZN], in the series with CST (CTC1-STN1-TEN1) [2] (antiparallel G4 in KCl), the Kd was 1.1 ± 0.3 nM.

For AGTGTGAGTTAGGGTTAGGGTTAGGGTTAGGGTGAGTGTG (structured_DNA) [Tel40 Middle G4], the Kd is 4.4 ± 0.3 nM with CST (CTC1-STN1-TEN1) [1] (intramolecular G4 in middle); 0.46 ± 0.05 nM in series [4] (intramolecular G4 in middle); 1.94 ± 0.16 nM with CST (CTC1-STN1-TEN1) [2] (intramolecular G4 in middle); 0.61 ± 0.13 nM in series [5] (intramolecular G4 in middle); 1.04 ± 0.21 nM with CST (CTC1-STN1-TEN1) [3] (intramolecular G4 in middle, linear in LiCl); 0.28 ± 0.03 nM in series [6] (intramolecular G4 in middle).

As for AGGGTTAGGGTTAGGGTTAGGGTGAGTGTGAGTGTGAGTG (structured_DNA) [Tel40 5' G4], the Kd in series [4] (setting [9]) came to 0.85 ± 0.21 nM; with CST (CTC1-STN1-TEN1) [2] (setting [9]), 1.53 ± 0.17 nM; in series [5] (setting [9]), 0.82 ± 0.15 nM; with CST (CTC1-STN1-TEN1) [3] (intramolecular G4 at 5' end, 18 nt 3' tail, linear in LiCl), 1.47 ± 0.23 nM; in series [6] (setting [9]), 0.78 ± 0.08 nM.

These data come from PMC10250233, “RPA engages telomeric G-quadruplexes more effectively than CST”.
